Experimental findings from patent US20140087995A1 (published 2014) are described below.

Numbered stars: 1 amine (or outer) side, 2 acyl side, 3 side chain; on linkers, the order of the positions; unused ones are H or OH. Bridge positions count the residues as written; N and C are the ends. Side chains are listed from the residue outwards. Ends that are not written are not given here. * marks the point of attachment. C20 diacid = O=C(O)CCCCCCCCCCCCCCCCCCC(=O)*; γGlu = O=C(O)[C@H](CCC(=O)[*:2])N[*:1]

The target in experiment [1] is T1, human calcitonin receptor (human, UniProt P30988 25-474).
T1 sequence (looked up): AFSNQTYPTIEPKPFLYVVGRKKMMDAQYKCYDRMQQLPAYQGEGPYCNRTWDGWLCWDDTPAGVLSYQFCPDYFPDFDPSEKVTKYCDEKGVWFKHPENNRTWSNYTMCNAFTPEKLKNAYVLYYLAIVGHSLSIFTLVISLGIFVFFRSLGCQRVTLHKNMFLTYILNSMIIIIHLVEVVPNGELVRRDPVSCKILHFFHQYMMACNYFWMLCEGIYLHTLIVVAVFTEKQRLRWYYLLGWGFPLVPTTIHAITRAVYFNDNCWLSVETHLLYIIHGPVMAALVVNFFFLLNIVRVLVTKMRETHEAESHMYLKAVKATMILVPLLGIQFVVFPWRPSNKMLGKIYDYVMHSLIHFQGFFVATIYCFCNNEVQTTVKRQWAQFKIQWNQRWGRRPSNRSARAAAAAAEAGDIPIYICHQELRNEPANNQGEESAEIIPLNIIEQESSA
Kind of experiment: cell-based or functional assay.

The target in experiment [2] is T2, human amylin receptor (amylin 3(a) receptor: human calcitonin receptor with RAMP-3) (human, UniProt P30988 25-474; O60896 24-148, limits assumed).
T2 sequence (looked up) 1: T1 sequence (looked up)
T2 sequence (looked up) 2: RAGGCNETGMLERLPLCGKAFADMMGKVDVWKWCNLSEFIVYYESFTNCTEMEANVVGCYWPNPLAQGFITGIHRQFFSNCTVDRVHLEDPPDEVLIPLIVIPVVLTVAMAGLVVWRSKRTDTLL
Put plainly: cell-based or functional assay.

Experiment [3] deals with T2, human amylin receptor (amylin 3(a) …). Put plainly: SPA competition binding on membranes of BHK cells with human calcitonin receptor + RAMP-3; displacement of 125I-rat amylin (Assay V). In outline:
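Membranes from BHK Amylin 3(a)/CRE-luc cells (35 ng/μL final) were mixed with SPA beads and test compounds in 50 mM Hepes pH 7.4 with 1 mM CaCl2, 5 mM MgCl₂, 0.1% OA and 0.02% Tween20. Incubation ran 120 min at 25° C with shaking; IC₅₀ came from one-site competition fitting.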

Experiment [4] concerns the target T3, human calcitonin receptor (human, UniProt P30988 25-474).
T3 construct: whole, on cells; Assayed as cell membranes of BHK tk'ts 13 cells stably transfected with the human calcitonin receptor (Assay VII); also called hCTR; hCT
T3 sequence (looked up): T1 sequence (looked up)
Put plainly: IC50 at hCTR divided by IC50 at hAmylin-R (SPA competition assays V and VII). In outline: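 Scintillation proximity competition binding on cell membranes at 35 ng/μL with SPA beads, in 50 mM Hepes pH 7.4, 1 mM CaCl2, 5 mM MgCl₂, 0.1% OA, 0.02% Tween20. Incubated 120 min at 25° C with shaking. IC₅₀ from one-site competition fit.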

Experiment [5] deals with T3, human calcitonin receptor. Kind of experiment: SPA competition vs 125I-calcitonin, membranes of BHK cells with human calcitonin receptor (Assay VII). In outline:
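BHK hCTR membranes 35 ng/μL + SPA beads 0.05 mg/well; buffer 50 mM Hepes pH 7.4, 1 mM CaCl2, 5 mM MgCl₂, 0.1% OA, 0.02% Tween20. 120 min, 25° C., shaking. Scintillation count; IC50 by one-site binding competition.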

The target in experiment [6] is T4, human amylin receptor (amylin 3(a) receptor: human calcitonin receptor co-expressed with RAMP-3) (human, UniProt P30988 25-474; O60896 24-148, limits assumed).
T4 construct: whole, on cells; Assayed as cell membranes of BHK570 Amylin 3(a)/CRE-luc cells (Assay V); also called hAmylin-R; hAmylinR
T4 sequence (looked up) 1: T1 sequence (looked up)
T4 sequence (looked up) 2: T2 sequence (looked up) 2
Kind of experiment: SPA competition vs 125I-rat amylin, membranes of BHK cells with human amylin 3(a) receptor (Assay V). As for the experimental part:
(§1) The binding assay was performed using scintillation proximity assay (SPA) beads (RPNQ0001) from PerkinElmer and cell membranes from the Amylin 3(a)/CRE-luc cells (as described in Assay (II)) were used. Membranes were prepared in the following way; the cells were rinsed with PBS and incubated with Versene for approximately 5 min before harvesting. The cells were flushed with PBS and the cell-suspension was centrifuged for 5 min at 1000 rpm. Cells were homogenized (ultrathurrax) in a buffer containing 20 mM Na-HEPES and 10 mM EDTA (pH 7.4) and centrifuged at 20.000 rpm for 15 min. The resulting pellet was resuspended, homogenized and centrifuged (20.000 rpm, 15 min) in a buffer containing 20 mM Na-HEPES and 0.1 mM EDTA (pH 7.4, buffer 2). The resulting pellet was resuspended in buffer 2 and protein concentration was measured (BCA protein Assay, Pierce). The homogenate was kept cold during the whole procedure. The membranes were kept at −80° C. until use. The assay was performed in a 384 well Optiplate (PerkinElmer) in a total volume of 40 ul. Membranes were mixed with SPA beads. Final concentration of membranes 35 ng/μL final and SPA beads was 0.05 mg/well. […] Samples were analyzed on TopCounter™ (Packard). The IC₅₀ was calculated using (one site binding competition analysis) GraphPad Prism5 as a measure of receptor affinity.

Experiment [7] deals with T5, human amylin receptor (amylin 3(a) receptor: human calcitonin receptor co-expressed with RAMP-3) (human, UniProt P30988 25-474; O60896 24-148, limits assumed).
T5 construct: whole, on cells; functional assay (Assay II a) used the whole cells; also called hAmylin-R; hAmylinR
T5 sequence (looked up) 1: T1 sequence (looked up)
T5 sequence (looked up) 2: T2 sequence (looked up) 2
Put plainly: SPA competition against 125I-rat amylin, membranes of Amylin 3(a)/CRE-luc BHK cells (Assay V). The protocol:
as §1

In experiment [8] the target is T6, human calcitonin receptor (human, UniProt P30988 25-474).
T6 sequence (looked up): T1 sequence (looked up)
Kind of experiment: cell-based or functional assay. This is another data set of the same source.

Experiment [9] deals with T5, human amylin receptor (amylin 3(a) …). Put plainly: cell-based or functional assay.

B1: N^α1-[(4S)-4-carboxy-4-(19-carboxynonadecanoylamino)butanoyl]-[Glu14,Arg17,Pro21,Pro27,Arg35]-h-amylin (peptide)
peptide: {C20 diacid-γGlu}-KCNTATCATQRLAEFLRHSSPNFGAIPSSTNVGSRTY-NH2
modifications: disulfide 2-7
SMILES: CC[C@H](C)[C@H](NC(=O)[C@H](C)NC(=O)CNC(=O)[C@H](Cc1ccccc1)NC(=O)[C@H](CC(N)=O)NC(=O)[C@@H]1CCCN1C(=O)[C@H](CO)NC(=O)[C@H](CO)NC(=O)[C@H](Cc1c[nH]cn1)NC(=O)[C@H](CCCNC(=N)N)NC(=O)[C@H](CC(C)C)NC(=O)[C@H](Cc1ccccc1)NC(=O)[C@H](CCC(=O)O)NC(=O)[C@H](C)NC(=O)[C@H](CC(C)C)NC(=O)[C@H](CCCNC(=N)N)NC(=O)[C@H](CCC(N)=O)NC(=O)[C@@H](NC(=O)[C@H](C)NC(=O)[C@@H]1CSSC[C@H](NC(=O)[C@H](CCCCN)NC(=O)CC[C@H](NC(=O)CCCCCCCCCCCCCCCCCCC(=O)O)C(=O)O)C(=O)N[C@@H](CC(N)=O)C(=O)N[C@@H]([C@@H](C)O)C(=O)N[C@@H](C)C(=O)N[C@@H]([C@@H](C)O)C(=O)N1)[C@@H](C)O)C(=O)N1CCC[C@H]1C(=O)N[C@@H](CO)C(=O)N[C@@H](CO)C(=O)N[C@H](C(=O)N[C@@H](CC(N)=O)C(=O)N[C@H](C(=O)NCC(=O)N[C@@H](CO)C(=O)N[C@@H](CCCNC(=N)N)C(=O)N[C@H](C(=O)N[C@@H](Cc1ccc(O)cc1)C(N)=O)[C@@H](C)O)C(C)C)[C@@H](C)O
notes: also called compound 16
Take B1: in experiment [1], the “Ratio hCT/hAmylin funct.” value worked out at 6.1 ratio and the “hCTR funct. EC50 (pM)” value worked out at 2220 pM. Further, in [2], the “hAmylin-R funct. EC50 (pM)” value amounted to 363 pM. In addition, the IC50 in experiment [3] amounted to 0.894 nM.

B2: N^ε1-[(4S)-4-carboxy-4-(19-carboxynonadecanoylamino)butanoyl]-[His14,Arg17,Pro21,Pro27,Pro34]-h-amylin (peptide)
peptide: K([γGlu-C20 diacid])CNTATCATQRLAHFLRHSSPNFGAIPSSTNVGPNTY-NH2
modifications: disulfide 2-7; N-terminus assumed
SMILES: CC[C@H](C)[C@H](NC(=O)[C@H](C)NC(=O)CNC(=O)[C@H](Cc1ccccc1)NC(=O)[C@H](CC(N)=O)NC(=O)[C@@H]1CCCN1C(=O)[C@H](CO)NC(=O)[C@H](CO)NC(=O)[C@H](Cc1c[nH]cn1)NC(=O)[C@H](CCCNC(=N)N)NC(=O)[C@H](CC(C)C)NC(=O)[C@H](Cc1ccccc1)NC(=O)[C@H](Cc1c[nH]cn1)NC(=O)[C@H](C)NC(=O)[C@H](CC(C)C)NC(=O)[C@H](CCCNC(=N)N)NC(=O)[C@H](CCC(N)=O)NC(=O)[C@@H](NC(=O)[C@H](C)NC(=O)[C@@H]1CSSC[C@H](NC(=O)[C@@H](N)CCCCNC(=O)CC[C@H](NC(=O)CCCCCCCCCCCCCCCCCCC(=O)O)C(=O)O)C(=O)N[C@@H](CC(N)=O)C(=O)N[C@@H]([C@@H](C)O)C(=O)N[C@@H](C)C(=O)N[C@@H]([C@@H](C)O)C(=O)N1)[C@@H](C)O)C(=O)N1CCC[C@H]1C(=O)N[C@@H](CO)C(=O)N[C@@H](CO)C(=O)N[C@H](C(=O)N[C@@H](CC(N)=O)C(=O)N[C@H](C(=O)NCC(=O)N1CCC[C@H]1C(=O)N[C@@H](CC(N)=O)C(=O)N[C@H](C(=O)N[C@@H](Cc1ccc(O)cc1)C(N)=O)[C@@H](C)O)C(C)C)[C@@H](C)O
notes: also called compound 67
On to B2, for which, in [4], the “Ratio hCT/hAmylin binding” value was 51.6. The IC50 in [5] was determined as 4.63 nM; in [6], 0.09 nM.

B3: N^ε1-[(4S)-4-carboxy-4-(19-carboxynonadecanoylamino)butanoyl]-[His14,Arg17,Pro21,Pro27,Pro34]-h-amylin (peptide)
peptide: K([γGlu-C20 diacid])CNTATCATQRLAHFLRHSSPNFGAIPSSTNVGPNTY-NH2
modifications: disulfide 2-7; N-terminus assumed
SMILES: CC[C@H](C)[C@H](NC(=O)[C@H](C)NC(=O)CNC(=O)[C@H](Cc1ccccc1)NC(=O)[C@H](CC(N)=O)NC(=O)[C@@H]1CCCN1C(=O)[C@H](CO)NC(=O)[C@H](CO)NC(=O)[C@H](Cc1c[nH]cn1)NC(=O)[C@H](CCCNC(=N)N)NC(=O)[C@H](CC(C)C)NC(=O)[C@H](Cc1ccccc1)NC(=O)[C@H](Cc1c[nH]cn1)NC(=O)[C@H](C)NC(=O)[C@H](CC(C)C)NC(=O)[C@H](CCCNC(=N)N)NC(=O)[C@H](CCC(N)=O)NC(=O)[C@@H](NC(=O)[C@H](C)NC(=O)[C@@H]1CSSC[C@H](NC(=O)[C@@H](N)CCCCNC(=O)CC[C@H](NC(=O)CCCCCCCCCCCCCCCCCCC(=O)O)C(=O)O)C(=O)N[C@@H](CC(N)=O)C(=O)N[C@@H]([C@@H](C)O)C(=O)N[C@@H](C)C(=O)N[C@@H]([C@@H](C)O)C(=O)N1)[C@@H](C)O)C(=O)N1CCC[C@H]1C(=O)N[C@@H](CO)C(=O)N[C@@H](CO)C(=O)N[C@H](C(=O)N[C@@H](CC(N)=O)C(=O)N[C@H](C(=O)NCC(=O)N1CCC[C@H]1C(=O)N[C@@H](CC(N)=O)C(=O)N[C@H](C(=O)N[C@@H](Cc1ccc(O)cc1)C(N)=O)[C@@H](C)O)C(C)C)[C@@H](C)O
notes: also called compound 67
Take B3: in experiment [7], the IC50 was 0.09 nM. In experiment [8], the “Ratio hCT/hAmylin funct. (hCTR EC50 against hAmylin-R EC50)” value worked out at 5.2 and the “hCTR funct. EC50” value came out at 0.354 nM. Also, in [9], the “hAmylin-R funct. EC50” value came to 0.069 nM.

B4: N{-1}-[(4S)-4-carboxy-4-(19-carboxynonadecanoylamino)butanoyl]-Gly[Arg1,His14,Arg17,Pro21,Pro27]-h-amylin (peptide)
peptide: {C20 diacid-γGlu}-GRCNTATCATQRLAHFLRHSSPNFGAIPSSTNVGSNTY-NH2
modifications: disulfide 3-8
SMILES: CC[C@H](C)[C@H](NC(=O)[C@H](C)NC(=O)CNC(=O)[C@H](Cc1ccccc1)NC(=O)[C@H](CC(N)=O)NC(=O)[C@@H]1CCCN1C(=O)[C@H](CO)NC(=O)[C@H](CO)NC(=O)[C@H](Cc1c[nH]cn1)NC(=O)[C@H](CCCNC(=N)N)NC(=O)[C@H](CC(C)C)NC(=O)[C@H](Cc1ccccc1)NC(=O)[C@H](Cc1c[nH]cn1)NC(=O)[C@H](C)NC(=O)[C@H](CC(C)C)NC(=O)[C@H](CCCNC(=N)N)NC(=O)[C@H](CCC(N)=O)NC(=O)[C@@H](NC(=O)[C@H](C)NC(=O)[C@@H]1CSSC[C@H](NC(=O)[C@H](CCCNC(=N)N)NC(=O)CNC(=O)CC[C@H](NC(=O)CCCCCCCCCCCCCCCCCCC(=O)O)C(=O)O)C(=O)N[C@@H](CC(N)=O)C(=O)N[C@@H]([C@@H](C)O)C(=O)N[C@@H](C)C(=O)N[C@@H]([C@@H](C)O)C(=O)N1)[C@@H](C)O)C(=O)N1CCC[C@H]1C(=O)N[C@@H](CO)C(=O)N[C@@H](CO)C(=O)N[C@H](C(=O)N[C@@H](CC(N)=O)C(=O)N[C@H](C(=O)NCC(=O)N[C@@H](CO)C(=O)N[C@@H](CC(N)=O)C(=O)N[C@H](C(=O)N[C@@H](Cc1ccc(O)cc1)C(N)=O)[C@@H](C)O)C(C)C)[C@@H](C)O
notes: also called compound 99
As for B4, the “Ratio hCT/hAmylin binding” value in experiment [4] was 100. In addition, the IC50 was determined as 35 nM in experiment [5] and 0.348 nM in experiment [6].
